What all share (conditions): both partners purified
In assay [1] the target is T1, βarr2 R394A mutant (Rattus norvegicus, UniProt P29067 1-410, R394A).
T1 construct: β-arrestin2, rat (as the wild type m1), with R394A; also called R394A (site II); source: purified
Description: ITC; 1 mM peptide injected (2.5 μL, 200 s intervals) into 200 μM βarr2 in the cell; 298 K; 20 mM HEPES pH 7.0, 200 mM NaCl; two-site model for the wild type. (ITC needs no label: the signal is the heat of the interaction.)

The target of assay [2] is T2, Rattus norvegicus wild-type β-arrestin2 (Rattus norvegicus, UniProt P29067 1-410).
T2 construct: β-arrestin2, Rattus norvegicus, UniProt P29067, cloned into pET-28a; also called βarr2; wild-type βarr2; source: E. coli BL21(DE3)pLysS, purified (Ni-sepharose, HiTrap heparin, Superdex 200 gel filtration); not shown: His6, N-terminal, kept
The description is as above.

Assay [3] deals with T3, βarr2 R166A mutant (Rattus norvegicus, UniProt P29067 1-410, R166A).
T3 construct: β-arrestin2, rat (as the wild type m1), with R166A; also called R166A (site I); source: purified
Described as above.

The target in assay [4] is T2, Rattus norvegicus wild-type β-arrestin2. The assay is described as follows: pull-down; 20 μg βarr2 pre-incubated with or without peptide (5:1 peptide:βarr2, 4 °C, 1 h), then GST beads with 30 μg GST-clathrin, 2 h at 4 °C; 20 mM Tris-HCl pH 8.0, 100 mM NaCl, 1 mM DTT; GSH elution, anti-His Western blot. (Immunoblotting shows a protein as a band on a membrane.)

Square brackets hold non-standard residues; d marks the D form. Ends that are not written are not given here. pT = C[C@@H](OP(=O)(O)O)[C@H](N)C(=O)O; pS = N[C@@H](COP(=O)(O)O)C(=O)O

By Kd is commonly meant the equilibrium constant for the complex coming apart.

T2 sequence (P29067 whole entry): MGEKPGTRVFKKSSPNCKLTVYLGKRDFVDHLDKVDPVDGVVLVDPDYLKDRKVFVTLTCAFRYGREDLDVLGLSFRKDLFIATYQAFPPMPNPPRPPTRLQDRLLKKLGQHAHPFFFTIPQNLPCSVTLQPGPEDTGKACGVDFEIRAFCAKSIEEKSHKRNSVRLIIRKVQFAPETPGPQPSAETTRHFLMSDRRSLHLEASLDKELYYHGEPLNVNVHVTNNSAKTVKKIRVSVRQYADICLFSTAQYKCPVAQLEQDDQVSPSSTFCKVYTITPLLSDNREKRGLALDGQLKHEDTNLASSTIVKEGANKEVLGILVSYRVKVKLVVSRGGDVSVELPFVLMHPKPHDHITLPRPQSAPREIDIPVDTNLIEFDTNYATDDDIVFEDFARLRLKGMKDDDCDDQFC
T1 sequence (P29067 whole entry R394A): as the sequence (P29067 whole entry) above, with R394A counted along it
T3 sequence (P29067 whole entry R166A): as the sequence (P29067 whole entry) above, with R166A counted along it

B1: C7pp2, phosphopeptide from the carboxyl terminus of CXCR7 (residues 346-359) (peptide, UniProt P25106 346-359, looked up)
peptide: ASRV[pS]E[pT]EY[pS]ALEQ
notes: CXCR7 (atypical chemokine receptor), C-terminal residues 346-359; also called distal phospho-site cluster PxPxxP; source: synthetic peptide (NovoPep and Tufts University Core Facility)
With B1, the Kd in assay [1] stood at 1.1 µM; in assay [3], 16.4 µM. Besides, the binding result in assay [2] is recorded as “binds”.

B2: C7pp3, phosphopeptide from the carboxyl terminus of CXCR7 (residues 346-362) (peptide, UniProt P25106 346-362, looked up)
peptide: A[pS]RV[pS]E[pT]EY[pS]ALEQ[pS][pT]K
notes: CXCR7, C-terminal residues 346-362; source: synthetic peptide (NovoPep and Tufts University Core Facility)
For B2, the binding result in assay [4] is on record as “binds”.

For the origin of these results see paper PMC12331092, “An arginine switch drives the stepwise activation of β-arrestin by CXCR7” (PLOS Biology, 2025).
